Data set [1] deals with T1, hUPF1 (full-length) (Homo sapiens, UniProt Q92900-2 1-1118).
T1 sequence: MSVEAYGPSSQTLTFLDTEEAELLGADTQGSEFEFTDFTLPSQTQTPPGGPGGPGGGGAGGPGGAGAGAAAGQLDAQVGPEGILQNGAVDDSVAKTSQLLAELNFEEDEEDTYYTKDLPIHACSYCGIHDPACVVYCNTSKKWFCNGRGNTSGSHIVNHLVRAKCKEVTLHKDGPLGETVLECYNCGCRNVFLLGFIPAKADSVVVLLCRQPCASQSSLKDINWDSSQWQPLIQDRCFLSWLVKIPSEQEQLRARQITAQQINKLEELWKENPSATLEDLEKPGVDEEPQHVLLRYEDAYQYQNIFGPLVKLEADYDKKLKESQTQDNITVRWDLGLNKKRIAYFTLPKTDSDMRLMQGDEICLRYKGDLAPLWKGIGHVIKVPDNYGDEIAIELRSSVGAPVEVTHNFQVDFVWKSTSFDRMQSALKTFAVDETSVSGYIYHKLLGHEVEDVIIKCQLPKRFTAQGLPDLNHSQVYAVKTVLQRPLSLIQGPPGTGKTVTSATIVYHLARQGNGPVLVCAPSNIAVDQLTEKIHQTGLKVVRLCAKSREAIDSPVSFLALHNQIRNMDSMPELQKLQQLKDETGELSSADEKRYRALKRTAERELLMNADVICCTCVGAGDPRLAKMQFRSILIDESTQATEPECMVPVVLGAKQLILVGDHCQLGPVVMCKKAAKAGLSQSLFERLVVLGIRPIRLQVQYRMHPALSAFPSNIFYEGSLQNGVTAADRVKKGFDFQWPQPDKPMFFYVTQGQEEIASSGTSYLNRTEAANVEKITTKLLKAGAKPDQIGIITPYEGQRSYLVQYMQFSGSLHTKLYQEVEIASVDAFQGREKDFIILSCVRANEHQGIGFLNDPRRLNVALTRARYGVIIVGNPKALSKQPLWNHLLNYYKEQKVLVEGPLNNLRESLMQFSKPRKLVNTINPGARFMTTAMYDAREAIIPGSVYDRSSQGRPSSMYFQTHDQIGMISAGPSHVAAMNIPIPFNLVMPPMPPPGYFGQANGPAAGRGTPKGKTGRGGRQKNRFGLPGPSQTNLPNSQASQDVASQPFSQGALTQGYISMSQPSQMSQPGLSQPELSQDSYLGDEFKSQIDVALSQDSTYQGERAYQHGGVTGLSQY
The data set can be described thus: EMSA; 25 mM HEPES-NaOH pH 7.2, 135 mM NaCl, 2 mM DTT, 1 mg/ml acetylated BSA, 0.1% NP40, 20 min; EMSA 20 C, MST 22 C (20 nM DNA); no nucleotide cofactor or Mg2+ unles. As to conditions: protein: recombinant; tags: GST and His tags removed (thrombin, TEV); residual ENLYFQ linker likely at C-terminus; label: 5' 32P (EMSA). A general note: In EMSA bound probe runs differently from free probe, usually more slowly.

The target in data set [2] is T1, hUPF1 (full-length). The data set can be described thus: competition; vs 0.25 nM 32P-DNA35, 10 nM hUPF1; 25 mM HEPES-NaOH pH 7.2, 135 mM NaCl, 2 mM DTT, 1 mg/ml acetylated BSA, 0.1% NP40, 20 min; EMSA 20 C, MST 22 C (20 nM DNA); no nucleotide cofactor or Mg2+ unles. As to conditions: protein: recombinant, tags: GST and His tags removed (thrombin, TEV), residual ENLYFQ linker likely at C-terminus.

In data set [3] the target is T1, hUPF1 (full-length). Put plainly: MST; fit up to 156 nM hUPF1; 25 mM HEPES-NaOH pH 7.2, 135 mM NaCl, 2 mM DTT, 1 mg/ml acetylated BSA, 0.1% NP40, 20 min; EMSA 20 C, MST 22 C (20 nM DNA); no nucleotide cofactor or Mg2+ unles. Particulars: protein: recombinant; tags: GST and His tags removed (thrombin, TEV); residual ENLYFQ linker likely at C-terminus; label: 5' Alexa 647.

Data set [4] has as its target T1, hUPF1 (full-length). The data set can be described thus: EMSA; most or all bound at top concentrations; multimerization; 25 mM HEPES-NaOH pH 7.2, 135 mM NaCl, 2 mM DTT, 1 mg/ml acetylated BSA, 0.1% NP40, 20 min; EMSA 20 C, MST 22 C (20 nM DNA); no nucleotide cofactor or Mg2+ unles. As to conditions: protein: recombinant; tags: GST and His tags removed (thrombin, TEV); residual ENLYFQ linker likely at C-terminus; label: 32P.

Data set [5] has as its target T1, hUPF1 (full-length). Put plainly: MST; 25 mM HEPES-NaOH pH 7.2, 135 mM NaCl, 2 mM DTT, 1 mg/ml acetylated BSA, 0.1% NP40, 20 min; EMSA 20 C, MST 22 C (20 nM DNA); no nucleotide cofactor or Mg2+ unles. As to conditions: protein: recombinant; tags: GST and His tags removed (thrombin, TEV); residual ENLYFQ linker likely at C-terminus; label: 5' Alexa 647.
The target in data set [6] is T1, hUPF1 (full-length). Put plainly: EMSA; 25 mM HEPES-NaOH pH 7.2, 135 mM NaCl, 2 mM DTT, 1 mg/ml acetylated BSA, 0.1% NP40, 20 min; EMSA 20 C, MST 22 C (20 nM DNA); no nucleotide cofactor or Mg2+ unles. As to conditions: protein: recombinant; tags: GST and His tags removed (thrombin, TEV); residual ENLYFQ linker likely at C-terminus; label: 32P (EMSA).
Data set [7] concerns the target T1, hUPF1 (full-length). Put plainly: MST; biphasic, low-amplitude first phase; 25 mM HEPES-NaOH pH 7.2, 135 mM NaCl, 2 mM DTT, 1 mg/ml acetylated BSA, 0.1% NP40, 20 min; EMSA 20 C, MST 22 C (20 nM DNA); no nucleotide cofactor or Mg2+ unles. As to conditions: protein: recombinant; tags: GST and His tags removed (thrombin, TEV); residual ENLYFQ linker likely at C-terminus; label: 5' Alexa 647.

Data set [8] addresses T1, hUPF1 (full-length). Put plainly: EMSA; equivalent to G4 ss precursor; 25 mM HEPES-NaOH pH 7.2, 135 mM NaCl, 2 mM DTT, 1 mg/ml acetylated BSA, 0.1% NP40, 20 min; EMSA 20 C, MST 22 C (20 nM DNA); no nucleotide cofactor or Mg2+ unles. As to conditions: protein: recombinant; tags: GST and His tags removed (thrombin, TEV); residual ENLYFQ linker likely at C-terminus; label: 32P.

Data set [9] has as its target T1, hUPF1 (full-length). The data set can be described thus: MST; fit up to 313 nM hUPF1; 25 mM HEPES-NaOH pH 7.2, 135 mM NaCl, 2 mM DTT, 1 mg/ml acetylated BSA, 0.1% NP40, 20 min; EMSA 20 C, MST 22 C (20 nM DNA); no nucleotide cofactor or Mg2+ unles. As to conditions: protein: recombinant; tags: GST and His tags removed (thrombin, TEV); residual ENLYFQ linker likely at C-terminus; label: 5' Alexa 647.

Data set [10] has as its target T1, hUPF1 (full-length). Put plainly: EMSA; no nucleotide cofactor; 25 mM HEPES-NaOH pH 7.2, 135 mM NaCl, 2 mM DTT, 1 mg/ml acetylated BSA, 0.1% NP40, 20 min; EMSA 20 C, MST 22 C (20 nM DNA); no nucleotide cofactor or Mg2+ unles. As to conditions: protein: recombinant; tags: GST and His tags removed (thrombin, TEV); residual ENLYFQ linker likely at C-terminus; label: 5' 32P (EMSA).

Data set [11] deals with T1, hUPF1 (full-length). The data set can be described thus: MST; second experimental group; fit up to 156 nM; 25 mM HEPES-NaOH pH 7.2, 135 mM NaCl, 2 mM DTT, 1 mg/ml acetylated BSA, 0.1% NP40, 20 min; EMSA 20 C, MST 22 C (20 nM DNA); no nucleotide cofactor or Mg2+ unles. Particulars: protein: recombinant; tags: GST and His tags removed (thrombin, TEV); residual ENLYFQ linker likely at C-terminus; label: 5' Alexa 647.

13 molecules from PMC5499549, “DNA substrate recognition and processing by the full-length human UPF1 helicase” can be followed below.

As a reminder, the IC50 is the point on the concentration scale where inhibition reaches its midpoint. For CACAAGCAACCAATCGGTTCGACACTCATACTGGC (ssDNA) [DNA35], the binding signal in [1] is ~3 fold higher affinity than RNA35. Further, the IC50 in [2] (label: 5' 32P (EMSA)) is 0.0315 µM.

As a reminder, the Kd is a measure of binding affinity in units of concentration. For CACAAGCAACCAATCGGTTCGACACTCATACTGGC (ssDNA) [DNA35-Alexa647], in data set [3], the Kd was 0.0098 ± 0.001 µM. As to TTTTTTTTTTTTTTTTTTTTTTTTTTTTTTTTTTTTTTTTTTTTT (ssDNA) [d(T)45], in data set [4], the binding result was “binds”. In the case of TTTTTTTTTTTTTTT (ssDNA) [d(T)15-Alexa647], in [5], the dissociation constant (Kd) was 0.0394 ± 0.0036 µM. Consider UUUUUUUUUUUUUUUUUUUUUUUUUUUUUUUUUUU (ssRNA) [(U)35], for which the IC50 in data set [2] (label: 32P (EMSA)) worked out at 0.0123 µM.

B1: d(T)55 (ssDNA)
DNA: TTTTTTTTTTTTTTTTTTTTTTTTTTTTTTTTTTTTTTTTTTTTTTTTTTTTTTT
Consider B1, for which, in data set [4], the binding result is recorded as “binds”. Take AAAAAAAAAAAAAAAAAAAAAAAAAAAAAAAAAAA (ssRNA) [(A)35]: in data set [6], the binding signal is ~5 fold higher affinity than (C)35. In [2] (label: 32P (EMSA)), the IC50 was found to be 0.172 µM. On to AAAAAAAAAAAAAAAAAAAAAAAAAAAAAAAAAAA (ssDNA) [d(A)35-Alexa647], for which the equilibrium dissociation constant (Kd) in data set [7] turned out to be 4.2 ± 3.73 µM.

Regarding TTTTTTTTTTTTTTTTTT (ssDNA) [d(T)18], the binding result in data set [8] was “binds”. With TTTTTTTTTTTTTTTTTTTTTTTTT (ssDNA) [d(T)25-Alexa647], the Kd in [9] stood at 0.00598 ± 0.00051 µM. Consider TTTTTTTTTTTTTTTTTTTTTTTTTTTTTTTTTTT (ssDNA) [d(T)35], for which, in data set [1], the binding signal was ~2 fold higher affinity than (U)35. Moreover, the Kd in data set [10] was around 0.001 µM. In addition, in [2] (label: 5' 32P (EMSA)), the IC50 is 0.0115 µM. With TTTTTTTTTTTTTTTTTTTTTTTTTTTTTTTTTTT (ssDNA) [d(T)35-Alexa647], the values for the Kd in data set [3] and in data set [11] were 0.00405 ± 0.00058 µM and 0.00601 ± 0.00085 µM, respectively. With CACAAGCAACCAAUCGGUUCGACACUCAUACUGGC (ssRNA) [RNA35], the IC50 in [2] (label: 32P (EMSA)) came to 0.0504 µM.
